Laboratory results taken from publication PMC9478642.

B1: human T-plastin, full length, wild type [human] / F-actin (filaments of α-actin) [not stated] (parent)
chain 1: MDEMATTQISKDELDELKEAFAKVDLNSNGFICDYELHELFKEANMPLPGYKVREIIQKLMLDGDRNKDGKISFDEFVYIFQEVKSSDIAKTFRKAINRKEGICALGGTSELSSEGTQHSYSEEEKYAFVNWINKALENDPDCRHVIPMNPNTDDLFKAVGDGIVLCKMINLSVPDTIDERAINKKKLTPFIIQENLNLALNSASAIGCHVVNIGAEDLRAGKPHLVLGLLWQIIKIGLFADIELSRNEALAALLRDGETLEELMKLSPEELLLRWANFHLENSGWQKINNFSADIKDSKAYFHLLNQIAPKGQKEGEPRIDINMSGFNETDDLKRAESMLQQADKLGCRQFVTPADVVSGNPKLNLAFVANLFNKYPALTKPENQDIDWTLLEGETREERTFRNWMNSLGVNPHVNHLYADLQDALVILQLYERIKVPVDWSKVNKPPYPKLGANMKKLENCNYAVELGKHPAKFSLVGIGGQDLNDGNQTLTLALVWQLMRRYTLNVLEDLGDGQKANDDIIVNWVNRTLSEAGKSTSIQSFKDKTISSSLAVVDLIDAIQPGCINYDLVKSGNLTEDDKHNNAKYAVSMARRIGARVYALPEDLVEVKPKMVMTVFACLMGRGMKRV
chain 2: not shown

Variants of: B1
Test: sequential low-speed/high-speed F-actin cosedimentation assay
Conditions: with F-actin (filaments of α-actin); 5 μM actin, 2 μM plastin; read off a plot; scale: proportion of T-plastin in low-speed pellet

response	Variant
0.04	chain 1 F191A

Same assay, conditions: with F-actin (filaments of α-actin); 5 μM actin, 2 μM plastin; read off a plot; scale: proportion of T-plastin in low-speed plus high-speed pellet

response	Variant
0.42	chain 1 F191A
